Results as given in patent US20110166075A1.

Target: Mac-1 (CD11b/CD18) integrin receptor on primary mouse microglia (mouse) (UniProt P05555)
Assay: cell-based or functional assay

Chain of Mac-1 (CD11b/CD18) integrin receptor on primary mouse microglia (mouse) (P05555 17-1153, chain 1 of 2): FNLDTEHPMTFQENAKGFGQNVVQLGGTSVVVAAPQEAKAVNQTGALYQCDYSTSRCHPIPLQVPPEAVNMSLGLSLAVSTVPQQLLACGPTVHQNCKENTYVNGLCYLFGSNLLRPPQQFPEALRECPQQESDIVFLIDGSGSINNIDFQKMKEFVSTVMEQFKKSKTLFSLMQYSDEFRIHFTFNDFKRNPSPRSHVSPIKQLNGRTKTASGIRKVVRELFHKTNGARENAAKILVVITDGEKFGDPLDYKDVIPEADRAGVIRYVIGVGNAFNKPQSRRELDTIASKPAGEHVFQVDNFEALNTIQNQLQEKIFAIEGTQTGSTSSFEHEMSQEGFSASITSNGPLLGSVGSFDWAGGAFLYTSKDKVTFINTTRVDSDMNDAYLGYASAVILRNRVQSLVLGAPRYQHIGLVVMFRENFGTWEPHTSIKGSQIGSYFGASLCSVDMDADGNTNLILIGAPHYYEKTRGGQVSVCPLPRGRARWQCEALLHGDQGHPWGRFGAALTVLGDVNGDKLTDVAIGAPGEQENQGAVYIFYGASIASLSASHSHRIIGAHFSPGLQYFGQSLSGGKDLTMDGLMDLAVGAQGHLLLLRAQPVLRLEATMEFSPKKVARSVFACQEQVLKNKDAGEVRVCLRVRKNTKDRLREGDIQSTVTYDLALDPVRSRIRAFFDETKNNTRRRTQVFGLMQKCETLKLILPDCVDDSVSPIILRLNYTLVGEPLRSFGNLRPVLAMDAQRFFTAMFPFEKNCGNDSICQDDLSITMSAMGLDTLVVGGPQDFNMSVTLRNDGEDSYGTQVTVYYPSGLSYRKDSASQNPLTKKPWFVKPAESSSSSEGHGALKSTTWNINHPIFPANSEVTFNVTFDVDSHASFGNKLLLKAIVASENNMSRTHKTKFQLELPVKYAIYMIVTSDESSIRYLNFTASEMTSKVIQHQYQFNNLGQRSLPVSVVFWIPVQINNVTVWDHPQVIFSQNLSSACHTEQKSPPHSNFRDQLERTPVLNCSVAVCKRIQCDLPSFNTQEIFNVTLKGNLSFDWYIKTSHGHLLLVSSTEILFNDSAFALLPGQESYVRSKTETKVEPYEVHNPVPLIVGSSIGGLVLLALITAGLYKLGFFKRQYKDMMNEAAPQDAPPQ
Chain of Mac-1 (CD11b/CD18) integrin receptor on primary mouse microglia (mouse) (P11835 24-771, chain 2 of 2, further chain): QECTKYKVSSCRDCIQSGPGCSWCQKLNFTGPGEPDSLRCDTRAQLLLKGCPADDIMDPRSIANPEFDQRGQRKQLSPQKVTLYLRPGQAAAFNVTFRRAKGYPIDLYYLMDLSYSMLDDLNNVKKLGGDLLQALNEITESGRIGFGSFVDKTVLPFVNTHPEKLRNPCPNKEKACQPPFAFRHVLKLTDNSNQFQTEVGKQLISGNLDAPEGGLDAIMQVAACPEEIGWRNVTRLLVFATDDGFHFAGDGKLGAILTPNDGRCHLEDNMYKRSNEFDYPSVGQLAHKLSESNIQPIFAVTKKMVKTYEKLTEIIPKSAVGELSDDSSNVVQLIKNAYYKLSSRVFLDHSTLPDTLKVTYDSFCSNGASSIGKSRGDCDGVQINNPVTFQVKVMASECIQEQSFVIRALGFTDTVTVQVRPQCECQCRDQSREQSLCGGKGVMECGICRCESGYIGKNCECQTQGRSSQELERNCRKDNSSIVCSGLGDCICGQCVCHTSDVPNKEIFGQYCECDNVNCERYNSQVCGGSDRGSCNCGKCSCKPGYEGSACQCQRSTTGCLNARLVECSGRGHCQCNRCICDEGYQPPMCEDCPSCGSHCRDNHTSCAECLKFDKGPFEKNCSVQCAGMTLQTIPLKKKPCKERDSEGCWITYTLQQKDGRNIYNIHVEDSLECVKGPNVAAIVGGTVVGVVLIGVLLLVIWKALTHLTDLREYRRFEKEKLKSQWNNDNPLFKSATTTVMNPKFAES

Substance	Akt phosphorylation in microglia (Western blot) [fold]	activated microglia (cells larger than 2,000 um^2), fibrinogen treated cells (% of activated microglia)	activated microglia, fibrinogen treatment (% of activated microglia)	active RhoA in microglia (GST-Rhotekin pull-down, Western blot) [fold]	activated microglia (cells larger than 2,000 um^2), fibrinogen in the presence of M1/70 (% of activated microglia)	phagocytosis of fibrinogen-treated microglia [% reduction]
fibrinogen (Calbiochem), immobilized on tissue culture dishes (ligand)	24	71	71	1.9		
M1/70, rat anti-CD11b neutralizing antibody					18	40
